The target in test [1] is Protein G of the commercial protein G-based microplate (UniProt P19909). Description: ELISA; sandwich ELISA on commercial protein G-based microplates coated with anti-IFN-α antibody (2 μg/ml); AGP3-biotin 1 μg/ml, 1 hour at room temperature in DMEM/BSA; streptavidin-HRP and ABTS; background absorbance. Background: An ELISA detects its analyte on a solid surface through an enzyme-linked reagent.

The target in test [2] is 8pG receptor: eight tandemly repeated protein G C2 domains fused to an HA epitope and the immunoglobulin C2-type extracellular-transmembrane-cytosolic domains of mouse B7-1 (mB7) (not stated (streptococcal cDNA) | mouse). Nature of the test: ELISA; 3.3-biotin (1 μg/ml serially diluted in DMEM/BSA) added to paraformaldehyde-fixed 8pG cell-based microplates, room temperature 1 hour; streptavidin-HRP and ABTS, absorbance 405 nm.

Where “and” joins values, the source holds several entries; their conditions need not be identical. Equal values may be shown once.

As to “Biotin-conjugated monoclonal mouse anti-PEG IgM antibody AGP3”, the background OD 405 in test [1] was 1.29.
In test [2], “Biotin-conjugated monoclonal mouse anti-PEG antibody 3.3 (IgG type)” had a fold absorbance over the commercial protein G-based microplate, 0.01 ug/mL 3.3-biotin of 6.8 fold; a fold absorbance over the commercial protein G-based microplate, 0.04 ug/mL 3.3-biotin of 6.2 fold; a fold absorbance over the commercial protein G-based microplate, 0.11 ug/mL 3.3-biotin of 2.7 fold; a fold absorbance over the commercial protein G-based microplate, 1 ug/mL 3.3-biotin of 1.2 fold. In test [2], the fold absorbance over the traditional polystyrene-based microplate, 0.01 ug/mL 3.3-biotin turned out to be 23 fold; the fold absorbance over the traditional polystyrene-based microplate, 0.04 ug/mL 3.3-biotin is 12.4 fold; the fold absorbance over the traditional polystyrene-based microplate, 0.11 ug/mL 3.3-biotin came to 8.8 fold; the fold absorbance over the traditional polystyrene-based microplate, 1 ug/mL 3.3-biotin was found to be 1.5 fold. Also, in test [2], the other was 1.6 fold and 4.3 fold.

The values are drawn from PMC6294806.
